Experimental data from patent US9260505B2, “Methods for screening for binding partners of G-protein coupled receptors” (Heptares Therapeutics Limited, priority 2007, dated 2016).
Changes are numbered by the printed parent chain. Names may count otherwise. “And” between values parts separate entries of the source, which are not always exact repeats. Equal entries are not always repeated. Where two headings read alike, the source gives them in different places.

Legend:
βAR-m23 = βAR-m23 (Meleagris gallopavo, UniProt P07700, A282L/C116L/F327A/F338M/M90V/R68S/Y227A); type: binding, turkey
Sequence of βAR-m23 (P07700 34-424 R68S/M90V/C116L/Y227A/A282L/F327A/F338M): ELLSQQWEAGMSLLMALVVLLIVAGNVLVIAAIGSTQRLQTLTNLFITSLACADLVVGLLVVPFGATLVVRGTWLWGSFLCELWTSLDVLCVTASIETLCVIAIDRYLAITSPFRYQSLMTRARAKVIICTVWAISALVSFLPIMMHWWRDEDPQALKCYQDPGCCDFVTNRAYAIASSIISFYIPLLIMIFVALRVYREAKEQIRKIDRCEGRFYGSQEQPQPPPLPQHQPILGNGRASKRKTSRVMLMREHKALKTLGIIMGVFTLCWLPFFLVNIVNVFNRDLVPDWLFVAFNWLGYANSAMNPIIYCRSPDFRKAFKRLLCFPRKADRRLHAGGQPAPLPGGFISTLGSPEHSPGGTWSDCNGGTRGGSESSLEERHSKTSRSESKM

β1AR36-M23 = molecular target: T1, β1AR36-M23 (Meleagris gallopavo, UniProt P07700, A282L/C116L/C358A/DEL244-271/DEL277-278/F327A/F338M/M90V/R68S/Y227A); test: biochemical; type: binding, turkey; conditions: for kd: 10° C., footnote 1 averaged from two b1AR surfaces, footnote 2 preliminary results
T1 construct: beta-36 construct (amino acid residues 34-367 of the turkey beta receptor containing the following changes); His6 (C); made in house; host or cells: insect cells, baculovirus (stated for the beta-36 construct in the crystallisation text)
T1 sequence (P07700 other isoform, or with tags, fused parts or gaps with the stated changes): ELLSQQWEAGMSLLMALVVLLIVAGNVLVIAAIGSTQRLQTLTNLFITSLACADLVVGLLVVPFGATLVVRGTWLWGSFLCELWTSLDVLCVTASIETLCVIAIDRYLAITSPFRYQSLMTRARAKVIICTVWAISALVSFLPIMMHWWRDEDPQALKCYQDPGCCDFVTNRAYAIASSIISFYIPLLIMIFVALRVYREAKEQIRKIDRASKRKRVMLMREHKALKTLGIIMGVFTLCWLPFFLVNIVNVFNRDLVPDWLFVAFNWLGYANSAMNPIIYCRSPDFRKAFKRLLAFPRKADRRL
Protocol: Binding studies were performed at 10° C. using a Biacore S51 optical biosensor equipped with a streptavidin-coated CM5 chip and equilibrated with running buffer (20 mM trisHCl, 150 mM NaCl, 1 mM EDTA, 1% DMSO, 0.1% decyl maltoside, pH 7.8).
Flow through of the compound allowed the on rate to be determined. Subsequent washing enabled determination of the off rate. These parameters could then be used to determine a kinetic affinity measurement (Kd).

A2aR mutant Rag 23 = conditions: detergent-solubilised
[1] = Thermostability of neurotensin receptor and mutants (3H-neurotensin binding); type: physicochemical; conditions: neurotensin bound
Protocol: • 1. 340 site-directed mutants have been made between residues 61-400 of NTR. • 2. Initially, all of these mutants were assayed for thermostability using an assay measuring ^3H-neurotensin (agonist) binding after the heating step. […] Mutants tested for thermostability by heating in the absence of the agonist were re-tested using a slightly different assay where the mutants were heated in the presence of ^3H-neurotensin (Ligand(+) format in FIG. 12). […] All of these also have increased thermostability. • 5. Preferred combinations are • a. Nag7m F358A+A86L+I260A+F342A Tm 51° C. (neurotensin bound) • b. Nag7n F358A+H103A+I260A+F342A Tm 51° C. (neurotensin bound)

[2] = Thermostability of β adrenergic receptors expressed in mammalian cells, minus-ligand format (FIG. 26); conditions: 0.1% dodecylmaltoside, apo-state heated, 3H-DHA
From the text: The resulting mutants were transiently expressed in mammalian cells, solubilised in 0.1% dodecylmaltoside and assayed for thermostability in the minus-ligand format (heating the apo-state, quenching on ice, adding 3H-DHA).

[3] = Thermostability of detergent-solubilised βAR34-424 and mutants ([3H]-DHA binding after heating 30 min)
Protocol: Binding assays were performed using [^3H]-dihydroalprenolol (DHA) as radioligand as described under “Methods”. Samples were heated for 30 minutes at different temperatures before the assay. […] Data points are from duplicates of one single experiment.
Single point binding assays contained 20 mM Tris pH 8, 0.4 M NaCl, 1 mM EDTA, 0.1% DDM (or corresponding detergent) with 50 nM [^3H]-DHA and 20-100 μg membrane protein in a final volume of 120 μl; equilibration was for 1 h at 4° C. Thermostability was assessed by incubating the binding assay mix, with or without [^3H]-DHA at the specified temperature for 30 minutes; reactions were placed on ice and [^3H]-DHA added as necessary and equilibrated for a further hour. Receptor-bound and free radioligand were separated by gel filtration as described previously[18]. […] Radioactivity was counted on a Beckman LS6000 liquid scintillation counter and data were analyzed by nonlinear regression using Prism software (GraphPad).

[4] = Thermostability of solubilised adenosine A2a receptor and mutants; type: physicochemical; conditions: for Tm + agonist / Tm + antagonist / Tm − agonist / Tm − antagonist: 1% DDM, no glycerol; for Tm + agonist: agonist-occupied; for Tm + antagonist: antagonist-occupied; for Tm − agonist / Tm − antagonist: apo-state; for Tm: ZM241385 bound
Protocol: • 1. 315 site-directed mutants made between residues 2-316 of A2aR. • 2. All of these mutants have been assayed for thermostability using an assay measuring agonist and antagonist binding after the heating step (Ligand(−) format as described in FIG. 12). • a. […] Mutations have been combined to generate mutants in a putative antagonist conformation. Wildtype A2aR has a Tm of 31° C. with ZM241385 bound.

[5] = apo-state heated 30 min, E. coli expressed, DDM-solubilised, mean ± S.E. from duplicates

Molecule: 1-[4,6-propyl-^3H]-dihydroalprenolol [[^3H]-dihydroalprenolol]
- Kd (βAR-m23; membranes, n=2): 6.5 ± 0.2 nM
- Kd (βAR-m23; semipurified receptor): 12.5 nM

Molecule: OCc1cc(C(O)CNCCCCCCOCCCCc2ccccc2)ccc1O (centres unmarked) [Salmeterol]
- Kd (β1AR36-M23): 2500 ± 300 nM
- kd (β1AR36-M23): (9.5 ± 0.4) × 10^−2 s^−1
- binding strength compared with alprenolol or propranolol (β1AR36-M23; in words): bound the receptor much more weakly
- dissociation rate compared with the other compounds (β1AR36-M23; in words): dissociated much faster

Molecule: CCNC(=O)[C@H]1O[C@@H](n2cnc3c(N)ncnc32)[C@H](O)[C@@H]1O [[^3H]NECA]
- Kd (A2aR mutant Rag 23): 21 ± 1 nM

Molecule: C=CCc1ccccc1OC[C@@H](O)CNC(C)C [alprenolol]
- Kd (β1AR36-M23): 44 ± 1 nM
- kd (β1AR36-M23): (6.3 ± 0.1) × 10^−3 s^−1

Molecule: Wildtype NTR: wild-type neurotensin receptor [reference compound]
- Tm [1]: 35 °C

Molecule: human β1: human β1 adrenergic receptor
- apparent Tm [2]: ~12 °C

Molecule: m6-4: βAR34-424 mutant R68S, Y227A, A234L, A282L
- Tm [3, 5]: 41.6 ± 0.1 °C

Molecule: m6-5: βAR34-424 mutant R68S, A234L, A282L, A334L
- Tm [3, 5]: 41.9 ± 0.5 °C

Molecule: m6-9: βAR34-424 mutant R68S, Y227A, A234L, A282L, A334L
- Tm [3, 5]: 43.7 ± 0.4 °C

Molecule: m6-10: βAR34-424 mutant R68S, Y227A, A282L, A334L
- Tm [3, 5]: 47.4 ± 1.1 °C

Molecule: m7-1: βAR34-424 mutant M90V, A282L, F338M
- Tm [3, 5]: 43.0 ± 0.8 °C

Molecule: m7-7: βAR34-424 mutant M90V, Y227A, F338M
- Tm [3, 5]: 45.2 ± 2.0 °C

Molecule: m10-4: βAR34-424 mutant R68S, M90V, V230A, A334L
- Tm [3, 5]: 46.9 ± 1.0 °C

Molecule: m20: βAR34-424 mutant R68S, M90V, F327A, A334L
- Tm [3, 5]: 48.4 ± 0.7 °C

Molecule: m23: βAR34-424 mutant R68S, M90V, Y227A, A282L, F327A, F338M
- Tm ([3]; Ni-NTA partially purified, in DDM): 52 °C
- Tm ([3]; Ni-NTA partially purified, in DM): 48 °C
- Tm ([3]; Ni-NTA partially purified, in LDAO): 23 °C
- Tm ([3]; Ni-NTA partially purified, in NG): 25 °C
- Tm ([3]; Ni-NTA partially purified, in OG): 17 °C
- Tm with antagonist bound ([3]; [3H]-DHA bound during heating): 55 °C
- increase in Tm with bound antagonist ([3]; antagonist bound versus without antagonist): 2 °C
- Tm [3, 5]: 52.8 °C and 52.8 ± 1.4 °C

Molecule: turkey β1: turkey β1 adrenergic receptor transiently expressed in mammalian cells
- apparent Tm [2]: 23 °C

Molecule: wt: wild-type human adenosine A2a receptor [reference compound]
- Tm, Agonist-binding ([4]; 0.003% LDAO): 28 °C
- Tm, Antagonist-binding ([4]; 0.003% LDAO): 32 °C
- Tm, Agonist-binding ([4]; 0.006% FC12): 37 °C
- Tm, Antagonist-binding ([4]; 0.006% FC12): 43 °C
- Tm, Agonist-binding ([4]; 0.01% DDM): 27 °C
- Tm, Antagonist-binding ([4]; 0.01% DDM): 25 °C
- Tm, Agonist-binding ([4]; 0.1% DM): 23 °C
- Tm, Antagonist-binding ([4]; 0.1% DM): 10 °C
- Tm, Agonist-binding ([4]; 0.3% NM): 22 °C
- Tm, Antagonist-binding ([4]; 0.3% NM): <4 °C
- Tm, Agonist-binding ([4]; 0.6% OG): <9 °C
- Tm + agonist [4]: 29 °C
- Tm + antagonist [4]: 32 °C
- Tm − agonist [4]: 21 °C
- Tm − antagonist [4]: 31 °C
- Tm [4]: 31 °C

B1: Nag7m: rat neurotensin receptor mutant F358A+A86L+I260A+F342A (protein, UniProt P20789 1-424, looked up, variant F358A A86L I260A F342A)
Neurotensin receptor type 1: MHLNSSVPQGTPGEPDAQPFSGPQSEMEATFLALSLSNGSGNTSESDTAGPNSDLDVNTDIYSKVLVTAIYLALFVVGTVGNSVTLFTLARKKSLQSLQSTVHYHLGSLALSDLLILLLAMPVELYNFIWVHHPWAFGDAGCRGYYFLRDACTYATALNVASLSVERYLAICHPFKAKTLMSRSRTKKFISAIWLASALLAIPMLFTMGLQNRSGDGTHPGGLVCTPIVDTATVKVVIQVNTFMSFLFPMLVISILNTVAANKLTVMVHQAAEQGRVCTVGTHNGLEHSTFNMTIEPGRVQALRHGVLVLRAVVIAFVVCWLPYHVRRLMFCYISDEQWTTALFDFYHYFYMLTNALAYVSSAINPILYNLVSANFRQVFLSTLACLCPGWRHRRKKRPTFSRKPNSMSSNHAFSTSATRETLY
- Tm [1]: 51 °C

B2: Nag7n: rat neurotensin receptor mutant F358A+H103A+I260A+F342A (protein, UniProt P20789 1-424, looked up, variant F358A H103A I260A F342A)
Neurotensin receptor type 1: B1 Neurotensin receptor type 1 with L86A, H103A
- Tm [1]: 51 °C

B3: Rant17: A2aR mutant A54L + K122A + L235A (protein, UniProt P29274 1-412, looked up, variant A54L K122A L235A)
Adenosine receptor A2a: MPIMGSSVYITVELAIAVLAILGNVLVCWAVWLNSNLQNVTNYFVVSLAAADILVGVLAIPFAITISTGFCAACHGCLFIACFVLVLTQSSIFSLLAIAIDRYIAIRIPLRYNGLVTGTRAAGIIAICWVLSFAIGLTPMLGWNNCGQPKEGKNHSQGCGEGQVACLFEDVVPMNYMVYFNFFACVLVPLLLMLGVYLRIFLAARRQLKQMESQPLPGERARSTLQKEVHAAKSAAIIVGLFALCWLPLHIINCFTFFCPDCSHAPLWLMYLAIVLSHTNSVVNPFIYAYRIREFRQTFRKIIRSHVLRQQEPFKAAGTSARVLAAHGSDGEQVSLRLNGHPPGVWANGSAPHPERRPNGYALGLVSGGSAQESQGNTGLPDVELLSHELKGVCPEPPGLDDPLAQDGAGVS
- Tm [4]: Tm 48 °C (ZM241385 bound)

B4: Rag 1: A2aR mutant A184L/R199A/L272A (protein, UniProt P29274 1-412, looked up, variant A184L R199A L272A)
Adenosine receptor A2a: B3 Adenosine receptor A2a with L54A, A122K, A184L, R199A, A235L, L272A
- Tm + agonist [4]: 34 °C
- Tm − agonist [4]: 26 °C

B5: Rant19: A2aR mutant A54L, T88A, V239A + A204L (protein, UniProt P29274 1-412, looked up, variant A54L T88A V239A A204L)
Adenosine receptor A2a: B3 Adenosine receptor A2a with T88A, A122K, A204L, A235L, V239A
- Tm [4]: Tm 47 °C (ZM241385 bound)

B6: Rant21: A2aR mutant A54L, T88A, V239A + K122A (protein, UniProt P29274 1-412, looked up, variant A54L T88A V239A K122A)
Adenosine receptor A2a: B3 Adenosine receptor A2a with T88A, A235L, V239A
- Tm, Antagonist-binding ([4]; 0.003% LDAO): 42 °C
- Tm, Antagonist-binding ([4]; 0.006% FC12): 49 °C
- Tm, Antagonist-binding ([4]; 0.01% DDM): 39 °C
- Tm, Antagonist-binding ([4]; 0.1% DM): 28 °C
- Tm, Antagonist-binding ([4]; 0.3% NG): 22 °C
- Tm, Antagonist-binding ([4]; 0.3% NM): 25 °C
- Tm, Antagonist-binding ([4]; 0.6% OG): 23 °C
- Tm + antagonist [4]: 49 °C
- Tm − antagonist [4]: 41 °C
- Tm [4]: Tm 49 °C (ZM241385 bound)

B7: Rant 5: A2aR mutant A54L/T88A/V239A (protein, UniProt P29274 1-412, looked up, variant A54L T88A V239A)
Adenosine receptor A2a: B3 Adenosine receptor A2a with T88A, A122K, A235L, V239A
- Tm + antagonist [4]: 46 °C
- Tm − antagonist [4]: 42 °C
